Positions of bridges follow the written chain, without caps; N, C: chain ends. Residues, ends and D or L forms follow the SMILES beside them. *: point of attachment. DOTA = O=C(O)CN1CCN(CC(=O)O)CCN(CC(=O)*)CCN(CC(=O)O)CC1
Experiments:
in vitro = in vitro ADME; details: mouse, serum
Protocol: Radiolabeled AgRP* peptides were incubated in 0.01 M PBS (pH 7.4) at 37°C for 24 h and monitored for degradation by HPLC. Stability was also tested by incubating 0.74 MBq (20 μCi) ^111In-DOTA-AgRP-7C or ^111In-DOTA-AgRP-6E in 400 μL of mouse serum at 37°C for 2 h. Afterward, the mixture was re-suspended in 0.5 mL of DMF containing 5 μL of Triton X-100 and centrifuged at 16,000 g for 2 min. The supernatant, which contained >95% of the starting radioactivity, was filtered using a 10 K NanoSep device (Pall Corporation, East Hills, NY, USA). Greater than 99% of the radioactive material passed through this filter. The samples were analyzed by radio-HPLC, and the percentage of intact peptide was determined by quantifying peaks corresponding to the intact peptide and to the degradation products.
Figure 1 Stability analysis of ^111In-DOTA-AgRP-7C (a) and (b), and ^111In-DOTA-AgRP-6E (c) and (d) in PBS and mouse serum. The two radiopeptides were incubated with PBS for 24 h at […], and mouse serum for 2 h at 37°C.

[1] = system: nude mice bearing subcutaneous U87MG human glioblastoma xenografts; assay: in vivo; details: female, athymic nu/nu, mouse, iv, 2 h
Protocol: (§1) All animal studies were carried out in compliance with federal and local institutional rules for animal experimentation. Approximately, 10^7 U87MG cells were suspended in PBS and subcutaneously implanted in the left shoulders of female athymic nu/nu mice. Tumors were allowed to grow to a size of 0.5 cm (2-3 weeks) before imaging experiments were performed. For biodistribution studies, U87MG tumor-bearing mice (n = 3 for each group) were injected with ^111In-DOTA-AgRP-7C (0.259–0.37 MBq, […]) or ^111In-DOTA-AgRP-6E (0.296–0.444 MBq, 8–12 μCi) via the tail vein and sacrificed at different time points (0.5, 2, 24, and 48 h) after injection (p.i.). Tumor and normal tissues of interest were removed and weighed, and their radioactivity was measured with a γ-counter. Radioactivity uptake was expressed as the percent injected dose per gram of tissue (%ID/g). To test the in vivo αvβ3 integrin targeting specificity of the probe, U87MG tumor-bearing mice (n = 3 for each group) were injected via the tail vein with a mixture of ^111In-DOTA-AgRP-7C (0.259–0.37 MBq, 7–10 μCi) and 330 μg of c(RGDyK). The mice were sacrificed at 2 h p.i. and the biodistribution of the radiolabeled peptide was measured as above.
(§2) Quantitative data were expressed as mean ± SD. Means were compared using the Student t-test. A 95% confidence level was chosen to determine the significance between groups, with P values of less than 0.05 indicating significant differences.

in vivo = details: female, athymic nu/nu, mouse, iv, total radioactivity
Protocol: as §1, §2

Work on `CC(C)C[C@@H]1NC(=O)[C@@H]2CSSC[C@@H]3NC(=O)[C@H]([C@@H](C)O)NC(=O)[C@H](C)NC(=O)[C@H](C)NC(=O)[C@@H]4CCCN4C(=O)[C@H](CC(=O)O)NC(=O)[C@H](CSSC[C@H](NC(=O)CNC(=O)CN4CCN(CC(=O)O)CCN(CC(=O)O)CCN(CC(=O)O)CC4)C(=O)N[C@@H](C(C)C)C(=O)N[C@@H](CCCNC(=N)N)C(=O)N[C@@H](CC(C)C)C(=O)N[C@@H](Cc4c[nH]cn4)C(=O)N[C@@H](CCC(=O)O)C(=O)N[C@@H](CO)C(=O)N2)NC(=O)[C@H](CSSC[C@@H](C(=O)N[C@@H](CCCNC(=N)N)C(=O)O)NC(=O)[C@H](Cc2ccc(O)cc2)NC(=O)[C@@H]2CSSC[C@H](NC(=O)[C@H](Cc4ccc(O)cc4)NC3=O)C(=O)N[C@@H](Cc3ccc(O)cc3)C(=O)NCC(=O)N[C@@H](CCCNC(=N)N)C(=O)NCC(=O)N[C@@H](CC(=O)O)C(=O)N[C@@H](CC(N)=O)C(=O)N[C@@H](CC(=O)O)C(=O)N[C@@H](CC(C)C)C(=O)N[C@@H](CCCNC(=N)N)C(=O)N2)NC(=O)[C@@H]2CCCN2C(=O)[C@H](C(C)C)NC(=O)[C@H](CCC(N)=O)NC(=O)[C@H](CCC(N)=O)NC(=O)CNC1=O` [111In-DOTA-AgRP-7C, metal not drawn] ({DOTA}-GCVRLHESCLGQQVPCCDPAATCYCYGRGDNDLRCYCR-OH; disulfide 2-17, 9-23, 16-37, 25-35) yielded a remaining at 2 h, 1.85 MBq/mL (in vitro) greater than 95%, an Intestine uptake [1] of 0.60 ± 0.13 %ID/g and a Liver uptake [1] of 0.43 ± 0.16 %ID/g. It also gave a Lung uptake [1] of 0.86 ± 0.20 %ID/g, a Spleen uptake [1] of 0.88 ± 0.21 %ID/g and a Tumor uptake [1] of 2.35 ± 0.36 %ID/g. For the same compound, the Tumor-to-muscle ratio [1] was 39.83 ± 9.16, the tissue uptake at 0.5 h (in vivo; Blood uptake) was 0.68 ± 0.26 %ID/g and the tissue uptake at 2 h (in vivo; Blood uptake) was 0.1 ± 0.02 %ID/g. The tissue uptake at 24 h (in vivo; Blood uptake) was 0.01 %ID/g, the tissue uptake at 48 h (in vivo; Blood uptake) was 0.01 %ID/g and the tissue uptake at 0.5 h (in vivo; Bone uptake) was 1.41 ± 0.36 %ID/g. For the same compound, the tissue uptake at 2 h (in vivo; Bone uptake) was 0.63 ± 0.05 %ID/g, the tissue uptake at 24 h (in vivo; Bone uptake) was 0.39 ± 0.07 %ID/g and the tissue uptake at 48 h (in vivo; Bone uptake) was 0.24 ± 0.05 %ID/g. It also gave a tissue uptake at 0.5 h (in vivo; Brain uptake) of 0.04 ± 0.02 %ID/g, a tissue uptake at 2 h (in vivo; Brain uptake) of 0.02 ± 0.01 %ID/g and a tissue uptake at 24 h (in vivo; Brain uptake) of 0.01 %ID/g. The tissue uptake at 48 h (in vivo; Brain uptake) was 0.01 ± 0.01 %ID/g, the tissue uptake at 0.5 h (in vivo; Heart uptake) was 0.45 ± 0.16 %ID/g and the tissue uptake at 2 h (in vivo; Heart uptake) was 0.12 ± 0.02 %ID/g. For the same compound, the tissue uptake at 24 h (in vivo; Heart uptake) was 0.04 ± 0.01 %ID/g, the tissue uptake at 48 h (in vivo; Heart uptake) was 0.03 %ID/g and the tissue uptake at 0.5 h (in vivo; Intestine uptake) was 2.02 ± 0.71 %ID/g. It also gave a tissue uptake at 24 h (in vivo; Intestine uptake) of 0.29 ± 0.02 %ID/g, a tissue uptake at 48 h (in vivo; Intestine uptake) of 0.22 ± 0.03 %ID/g and a tissue uptake at 0.5 h (in vivo; Kidneys uptake) of 33.9 ± 8.35 %ID/g. The tissue uptake at 2 h (in vivo; Kidneys uptake) was 30.6 ± 4.62 %ID/g, the tissue uptake at 24 h (in vivo; Kidneys uptake) was 19.1 ± 2.17 %ID/g and the tissue uptake at 48 h (in vivo; Kidneys uptake) was 8.47 ± 0.04 %ID/g. The tissue uptake at 0.5 h (in vivo; Liver uptake) was 0.8 ± 0.19 %ID/g, the tissue uptake at 24 h (in vivo; Liver uptake) was 0.24 ± 0.03 %ID/g and the tissue uptake at 48 h (in vivo; Liver uptake) was 0.19 ± 0.03 %ID/g. It also gave a tissue uptake at 0.5 h (in vivo; Lung uptake) of 2.11 ± 0.65 %ID/g, a tissue uptake at 24 h (in vivo; Lung uptake) of 0.26 ± 0.09 %ID/g and a tissue uptake at 48 h (in vivo; Lung uptake) of 0.12 ± 0.02 %ID/g. It also gave a tissue uptake at 0.5 h (in vivo; Muscle uptake) of 0.3 ± 0.13 %ID/g, a tissue uptake at 2 h (in vivo; Muscle uptake) of 0.06 ± 0.01 %ID/g and a tissue uptake at 24 h (in vivo; Muscle uptake) of 0.04 ± 0.01 %ID/g. The tissue uptake at 48 h (in vivo; Muscle uptake) was 0.02 ± 0.01 %ID/g, the tissue uptake at 0.5 h (in vivo; Pancreas uptake) was 0.42 ± 0.17 %ID/g and the tissue uptake at 2 h (in vivo; Pancreas uptake) was 0.13 ± 0.03 %ID/g. The tissue uptake at 24 h (in vivo; Pancreas uptake) was 0.09 ± 0.01 %ID/g, the tissue uptake at 48 h (in vivo; Pancreas uptake) was 0.05 ± 0.01 %ID/g and the tissue uptake at 0.5 h (in vivo; Spleen uptake) was 1.7 ± 0.62 %ID/g. The tissue uptake at 24 h (in vivo; Spleen uptake) was 0.58 ± 0.09 %ID/g, the tissue uptake at 48 h (in vivo; Spleen uptake) was 0.46 ± 0.1 %ID/g and the tissue uptake at 0.5 h (in vivo; Stomach uptake) was 2.17 ± 0.49 %ID/g. The tissue uptake at 24 h (in vivo; Stomach uptake) was 0.21 ± 0.01 %ID/g, the tissue uptake at 48 h (in vivo; Stomach uptake) was 0.14 ± 0.02 %ID/g and the tissue uptake at 0.5 h (in vivo; Tumor uptake) was 5.74 ± 1.6 %ID/g. The tissue uptake at 24 h (in vivo; Tumor uptake) was 1.29 ± 0.02 %ID/g, the tissue uptake at 48 h (in vivo; Tumor uptake) was 0.76 ± 0.17 %ID/g and the tissue to tissue ratio at 0.5 h (in vivo; Tumor-to-blood ratio) was 8.9 ± 3.09. It also gave a tissue to tissue ratio at 2 h (in vivo; Tumor-to-blood ratio) of 25.8 ± 10.5, a tissue to tissue ratio at 24 h (in vivo; Tumor-to-blood ratio) of 128 ± 30.5 and a tissue to tissue ratio at 48 h (in vivo; Tumor-to-blood ratio) of 144 ± 36.3. For the same compound, the tissue to tissue ratio at 0.5 h (in vivo; Tumor-to-muscle ratio) was 20.6 ± 6.4, the tissue to tissue ratio at 24 h (in vivo; Tumor-to-muscle ratio) was 37.7 ± 9.81 and the tissue to tissue ratio at 48 h (in vivo; Tumor-to-muscle ratio) was 41.1 ± 8.62.
